Laboratory results from a protein production outcome set (Wang et al. 2014).

Test: label from the status in PepcDB records

Row | Sequence | protein production
1 | MFSRVPQPLAFAEALLAQFGALSRETDITALLGGFARAVGELSGCELSQLYLLDQTHTALTLNAECRDGLLQALEPSSLPADYTGEQLLQFALCQNRVVSLVDLPSRLHETGFLPAGEQPWLSLLCVPLVSPEKTVEGMVVCATRRPLDLQGFAHPLGQLGSFVLAQLHLLQRLSQPSGE | not failed
2 | MNNSINHKFHHISRAEYQELLAVSRGDAVADYIIDNVSILDLINGGEISGPIVIKGRYIAGVGAEYADAPALQRIDARGATAVPGFIDAHLHIESSMMTPVTFETATLPRGLTTVICDPHEIVNVMGEAGFAWFARCAEQARQNQYLQVSSCVPALEGCDVNGASFTLEQMLAWRDHPQVTGLAEMMDYPGVISGQNALLDKLDAFRHLTLDGHCPGLGGKELNAYITAGIENCHESYQLEEGRRKLQLGMSLMIREGSAARNLNALAPLINEFNSPQCMLCTDDRNPWEIAHEGHIDALIRRLIEQHNVPLHVAYRVASWSTARHFGLNHLDLLAPGKQADIVLLSDARKVTVQQVLVKGEPIDAQTLQAEESARLAQSAPPYGNTIARQPVSASDFALQFTPGKRYRVIDVIHNELITHSHSSVYSENGFDRDDVCFIAVLERYGQRLAPACGLLGGFGLNEGALAATVSHDSHNIVVIGRSAEEMALAVYQVIQDGGGLCVVRNGQVQSHLPLPIAGLMSTDTAQSLAEQIDALKAAARECGPLPDEPFIQMAFLSLPVIPALKLTSQGLFDGEKFVFTTLEVTE | failed
3 | MSKLSIRNLTKIFGPHPEKALGLLEQGLGKEEIHRRTSHAVGVDRASFDVEEGEIVVVMGLSGSGKSTLVRCLNRLIEPTAGTVTVDGRDVTSMPVDELRRLRQRSFGMVFQNFALFPHRTVLQNAAFGLEAMGVPRAERERQAMVSLERVGLAEWAASRPAQLSGGMQQRVGLARALSLDPDILLMDEAFSALDPLIRRDMQDELLRLQDDLQKTIVFISHDLDEALKLGDRIVLMRDGAVVQIGTPEDILTNPADDYVARFVGEADVTKVLTAGSVMKRSEAVAVLGIDGPRTALRKMRRNAIATLFVLDERHRLVGLITADDAARLAAEGVRELGSIVRRDIATVPPEAPATELISLMADLPHPLAVVDERGRLAGVIVRGLLLGALAERGGVALEHHHHHH | not failed
4 | MSIGFYANDNFMGKSHIMDKSGKPHIGISKYPVIITQAKQQKLRKAINEARESNDILMVDFPRQMLITEHDDELVKSLGESLEEDLEYLGAIFYGKSKYVDSITGKFSLWRSNNVKVNLEHHHHHH | failed
5 | MSETITFPPLMTGEAAGPGQDPFDLACQKAELGVDAGLVVYELGTDVLRAALVLAPEVPLAKAMAMLPVCGVGFQNALGALAPPEVAVHLDWNGALRINGARCGRLRIAASTDDPDTQPDWLVVGLDLPLWPEGDGGETPDETALYAEGCADVAAPRLLESWARHCLHWINRWDEGELETIHGEWRGLAHGMGEARTEAGRSGTFLGVDEDFGMLLRDETTTHLIPLTTVLVQD | not failed
6 | LVEDFERELGRMLSPFELEDLQKTVSDDKTDPDLVRSALREAVFNGKTNWNYIQAILRNWRHEGISTLRQVEE | not failed
7 | MDFYQFAEYIVLNYGYFGIFLIAFTEAVIQPILPDIFIIGASAFGLDSVTCALVASFGSLTGGYTGYFLGKKLGTNVFLKIFKEKYFIKGKAFFEKFGVWGVAIAGFTPIPYKVFAWLAGIFKMNLVSFGAGTLLGRIPRFLLVAYFGYSLGLLFGLHTP | failed
8 | VFHRFNEPGSRSGYSLYVPEYYDPDREWPLVMALHGGSGHGRLFLWSWLRDARARGAIVVAPTATGRTWALMGEDVDSPNLARILDEVRGHWRIDPSRLLLTGLSDGGTFCYVSGLTSDSPFTHLAPIAASFHPLLAGAADSARLRGLPIQIVHGRHDWMFPVEVARQAHEALVSAGADVSYREIADLSHSYPREANVALLDWL | failed
9 | SDRGQAEEAAGRQARAVSLAIADSPSVAEAIRTPDPTALLQPYAVRVMRDTDVDFVTIMNPEGIRWTHPEPTEIGHLFQGHIERAQRGQTFTETYTGTLGPSVRAVTPIVDDGRIVGLVSAGIKVEEIS | failed
10 | IVPDAQDLGKSYGIRPSFIIAQAALDSDFGEKILANKYHNLFGLLAEPGTPSITLNDSSTGKKQEKQFTHYKSWKYSMYDYLAHIKSGATGKKDSYTIMVSVKNPKTLVQKLQDSGFDNDKKYAKKMTEIIDLYDLTRYDK | failed
11 | MKDFFKDQFFKALEKNTIFSRADVQGNLIFVSDKLCQISGYSKKELIGKKHSIFKHPDVEECYIEELLKKLSYKKPYQVIFKNIDKLGKTFYLETLLIPILDKNNELIEIVAFSHDVSNSFKLNEELALNHAKLRELSINLENTVKNHQQEFIQLGKKFEKKMQIALEKNEKDIKIAYEEILKSSLEQMISDIAHQWRQPLNELGIAMFQMKQNLKDEKGFAEIYSQSKDMIKNMSETIDVFRTLFNKGVEQCVFIKETLNKALEIAFETIEKNHVNINIVSKSDYEVLAYENGLIRVFLNLILNSIEAFKNKKRKIITINFSKFGKNYLKITIKDNAGGIDKENLDKIFQPYFTTKHPSQGIGVGLYISRQIIESFQGKIKVKNGKDGACFEIFLKLKERVE | failed
12 | MKNIIACIDGSPTTFATCEASAWVASKINAPLILLHALDKTMRPVVSEFSGQIGLGSQEELLNELAELDEARSKVALKHGKKLLEEATEWVIKKGLTNVEQLQRHGSLLESLIDLENQLRVLVIGKLGEDQSSNKTIGSQLESIIRSIKSHTLVVT | failed
13 | MSASTGASVIDLYHQAQDYFFVSISQFYRRFGSGLSAYCTGVEASSLNLLMMNVCAVDEPGALAEGVAFLQRTGMPFCVVVPEALVPRVSGQLHQQHLLAADKTTCMVLDLTRHEPRQALAAQAQVRCSDLRLEDWAQPVQSAFESGEGGIEQYLARHRAALSAGRALSHFTLYVEERPVSALTLSLLPGLARLDDIGTVQDCQGQGYATALIQAVLAFARARGARTCVLEASLDGLSIYRKAGFEALFDYRTFCQE | failed
14 | STVVEIKSQDQFTQLTTTNAANKLIVLYFKAQWADPCKTMSQVLEAVSEKVRQEDVRFLSIDADEHPEISDLFEIAAVPYFVFIQNGTIVKEISAADPKEFVKSLEILSNASASLANNAKGPKSTSDEESSGSSDDEEDETEEEINARLVKLVQAAPVMLFMKGSPSEPKCGFSRQLVGILREHQIRFGFFDILRDENVRQSLKKFSDWPTFPQLYINGEFQGGLDIIKESIEEDPEYFQHALQ | not failed
15 | MDYLSQEEDLQFFDANEEMMALNPSGFGFDVWNDSPGSVVERRRKFLEWMGVEEEGRVETKDSVSGSSVESCFDGGEENSVEAEERSGECSSSSSEVSLSGSSVEVSEELSLRVDRNVGGCDVTRRQSSSMASCSSSRYCQVKETEKQRNIAGLVTSFKKGWLSRLRSMGCTADTNIESGGRMRASSGYGDVISRVKVKHCKKQAKELSALYQSQDIKAHDGAILAMKFSNDGKFLASSGEDGIVRVWKVVEDKKSRLRRDCLNEIDPSCMYFEVNDLSQLKPVLVNEEKPKKTTESFRKTSDSACVVFPPKVFRIMEKPLYEFRGHTGEVLDISWSKDNYLLSASMDKTVRLWKVGSNDCLGVFAHNSYVTSVQFNPVNENYFMSGSIDGKVRIWNISGCSVVDWADLKDIISAVCYRPDGQGGIIGSLNGSCRFFNMSGEFLELDSQIHLHNKKKSSNKRITGFQFLPQEPTKVLVVSADSKVRILQGNNVVRKYKGVCKTRSLTSASLTSDGKHIVSACEDSNVYIWSNDEESETKKIRSFERFSANASVAATWCGFSDHNTTLPFSSPSCLSHNEGFVPGSISKGSATWPEENLPANPLSTSAMNASHYKFLKSSYQRASSSLSWGMVIVTGGWDGQIRTFQNYGLPVTT | failed
16 | MESSEEDDEYPFIESITPQSKIDSVHQSLTEKGIRKLCCELMDLKDAVENMCGDMRTKYLAFLRISEEAVEMEHELVELRKHISSQGILVQDLMAGVCREMDDWNRLPGDVHDAEVEEDPLPNEVTDPKSEFLEKIDLLLAEHKVDEALEAMDAEERSSPDLKGSVEMSSYKSAFMERKAVLEDQLLRIAKQPSICVAELKHALIGLIRLGKGPSAHQLLLKFYATSLRRRIEAFLPSCLTCPNTFPATLSKLVFSNISVATKESAAMFGDDDNPAYSNKVVQWAEREVEYLVRLVKENASPSETASALRAASICLQDCLNYCKVLEPQGLFLSKLFLVLFRPYVEEVLELNFRRARRVIFDLNETDEGLESPSDFVTILSEFAIASDTMMTDCSIRFMQIVQDILEQLTHLVVLHFGESVLTRILQLYDKYIDFLIKALPGHSDEDGLPELQDNTVLARAETDSEQLALLGAAFTILDELLPRSLVKVWKLQIENGGGEGENSAALNSSAAPELKEWKRHMVQAFDKLRNYFCLQFVLSFIYSREGLTRLDALIYLTETPDDLHLPSLPFQALFSKLQQLAIIAGDVLLGKEKLQKILLARLTETVIIWLSNEQEFWSAFEDESNPLQPSGLQQLILDMNFTVEIARFAGYPFKVVQNHASVVINRAINIFSERGINPQSSLPKTEWFTEAAKSAINRLLMGSEDASEPEEYECEEEEEDDHHIVLPEMDDDSDSEDTSSLSTVDSFESFASASMADLESPSFTDSES | failed
17 | MEKEKKEGWAHPEAAEKYAQTADIIIPERKEILSIISKAAIDLGPMDPKIIDLGCGLGDVTAEILKLKLQADVLMIDFSDEMIRRSSERFRDNKNITVVKRDLNQGILDITEDRGFDAVVSCFSIHHVEFENRIKLYSDIRKLLKEQGLFINGDLFREDSPAIDQWEFNNRIFSLMIQLKEKLGQEWTFEELKLNRLENSQKMGDKPGTIWETFHDMKAAGFRHVDCLWKSRNLAIMAATKP | failed
18 | AIATSALENYINRTVAVITSDGRMIVGTLKGFDQTINLILDESHERVFSSSQGVEQVVLGLYIVRGDNVAVIGEIDEETDSALDLGNIRAEPLNSVAH | not failed
19 | MSAERSRWLQCLGLPATADAIAIKTAYRQLARQWHPDCNPDPQATARFQEIQIAYERLLVLQESATAQPVPQAPPADAALIALKRQFQPQLQDLLADGRWAKAIALTEALQQRLPDDWEVRQWLAICYLRQGQALLVQQQRQQAIVYFEKARRTDPHNPRLQQEIQASHRLASARRA | failed
20 | MLTANIQAASSTRRYSDYVTRSWSHALPIGRKRINLDAIAQLAGERDIVGLQESDPGSLRSGFTNQTCYLAQRAGFHYWSHQPNRRMAGVASSANGLLSRLKPRQIHNHALPGRIPGRGVLLAKFGNGGFDSLVVAVVHLSLGVRSRMAQLVFIADLLAEYPNTILMGDFNCRADCSEMQVLYRRTRLQPPGVVIPTFPSWRPERAIDHILVSEGFYICKTEAVPAAFSDHLAVSMDLVIPQRILRLEHHHHHH | failed
21 | MSIDFYNQNASSFYASTVEVDSSSLLEQFTPYLPKGGSVLDAGCGSGRDSKRLIELGFHVDAFDASAALATLAQQLLGKPVRVATFMQFTSTLQYDGIWACASLLHVSKASLPDAFAHLASMLKSGGAFYCSFKYGQGEVERDGRSFTHCDEALLAELLTGSPLVIDKVWLTLEHHHHHH | failed
22 | MKKEYGYPTLKVICQASAGNETAIREILKFYDAYICKLCLRPFYHFESGKITMQVDEELKGQIHIEMMKAILKFEIRVK | failed
23 | MDVGSFGFTIAGLVVGFIVGMTGVGGGSLMTPILLWFGIHPATAVGTDLLYAAITKASGVWVHARNKNIDWKITGLLSLGSVPAAALTLWFLSTLHTDTSALNAIIKQGLAVVLILTALAILFKSRLQAFASRHAGDHYHLSDRSLNILTVLTGVVLGIMVTLTSIGAGALGTVALFLLYPFLVTRRLVGTEIAHAVPLTLVAGLGHAGMGNMDWSLLGYLLLGSLPGIYLGSHLTGRISDRVLRPCLATMLLLIGYKLAF | failed
24 | MKHSLSIIFILIAAMMWGTTGTAQVFAPAEAHPIIIGASRLAVGGLALFIFVMAQRKFQLRGWPVLPTFIAALSMAAYQPFFFSAVSITGVAVGTVVAIGSAPIIAGLLDWVIQRKPPGPTWGIATILAIAGCLLLTLPGEEVTVSPVGFLLAIGAGLSFAVYTAASKKLLQQQPSEAVVAVVFSLSALFLVPLFFLYDLSWLTEFRGIIVVLHLGIVATAIAYLLFTRGLTGVASSTAVTLALAEPLTAALLGVFLVGEALSFIAWGGVLLLLLGLAVLTGFTGARTPSTRFMRNKKDKVNVE | failed
